Here are results for ten molecules from paper PMC3626704 (BMC Biochemistry, 2013).

T1: 6-Helix-Fd (HIV-1 gp41 (HXB2-like, printed sequence), stabilised)
T1 construct: also called post-fusion six-helix bundle mimic
T1 chain: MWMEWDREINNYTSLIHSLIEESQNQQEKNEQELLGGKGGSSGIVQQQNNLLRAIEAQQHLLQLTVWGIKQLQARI

B1: 25C10 bivalent scFv on phage (scFv, V domains shown)
VH: QVQLVQSGAEVRKPGASVKVSCKASGDTFSSYAISWVRQAPGQGLEWMGGIIPIFGTANYAQAFQGRVTITANESTSTAYMELSSLRSEDTAIYYCARDNPTLLGSDYWGAGTLVTVSS
VL: DIQMTQSPSTLSASIGDRVTITCRASENIYGNLAWYQQKPGKAPKLLISRASRLASGAPSRFSGSGSGTDFTLTISSLQPDDFATYYCQQRYTYPLTFGGGTKLEIK
B2: 25D8 bivalent scFv on phage (scFv, V domains shown)
VH: B1 VH
VL: B1 VL with N28G, Y30S, G31S, S52Y, Y92A
B3: 25D6 bivalent scFv on phage (scFv, V domains shown)
VH: B1 VH
VL: B1 VL with G31S, R50S, R91N, Y92S, T93N, Y94N, L96H
B4: 25C12 bivalent scFv on phage (scFv, V domains shown)
VH: B1 VH
VL: B1 VL with N28D, Y30S, G31S, N32V, S49Y, R50N, Y92A, T93N, Y94N, L96H
B5: 25A10 bivalent scFv on phage (scFv, V domains shown)
VH: B1 VH
VL: B1 VL with N28S, Y30S, G31H, R50N, R91Y, Y92S, T93N
B6: 25D9 bivalent scFv on phage (scFv, V domains shown)
VH: B1 VH
VL: B1 VL with N28D, Y30L, N32R, S49Y, Y92A, T93N
B7: 25D3 bivalent scFv on phage (scFv, V domains shown)
VH: B1 VH
VL: DIQMTQSPSTLSASIGDRVTITCRASENIHRRLAWYQQKPGKAPKLLIYSAYSLASGAPSRFSGSGSGTDFTLTISSLQPDDFATYYCQQNSDYPHTFGGGTKLEIK
B8: 25C6 bivalent scFv on phage (scFv, V domains shown)
VH: B1 VH
VL: B7 VL with H30S, R31S, Y49S, S50N, S53H, N91R, D93N
B9: 25G8 bivalent scFv on phage (scFv, V domains shown)
VH: B1 VH
VL: B1 VL with N28S, Y30G, G31R, N32S, S49Y, R91S, Y92S, Y94T
B10: 25F1 bivalent scFv on phage (scFv, V domains shown)
VH: B1 VH
VL: B1 VL with N28G, Y30N, G31N, N32S, R91Y, Y92S, T93S, Y94T, L96H

Numbering of substitutions follows the chain as printed.

The target in one test is T2, 5-Helix (HIV-1 group M subtype B, HXB2 (gp41 …, stabilised)).
T2 construct: also called designed protein based on HIV-1 gp41
In words: ELISA. Particulars: one partner purified.
Consider B1, for which the “F_competitive (signal with 40 nM free 5-Helix / signal without)” value came to 0.1 fraction and the “phage ELISA signal OD450” value turned out to be 3.2 OD450.
Take B2: the “F_competitive (signal with 40 nM free 5-Helix / signal without)” value was 0.2 fraction and the “phage ELISA signal OD450” value amounted to 3.2 OD450.
The matching figures for B3: 0.1 fraction and 1.6 OD450.
For B4 the same measures were 0.3 fraction and 2.2 OD450.
As for B5, the “F_competitive (signal with 40 nM free 5-Helix / signal without)” value was found to be 0.1 fraction and the “phage ELISA signal OD450” value stood at 3.2 OD450.
The matching figures for B6: 0.2 fraction and 3 OD450.
For the molecule B7, the “F_competitive (signal with 40 nM free 5-Helix / signal without)” value was 0.1 fraction and the “phage ELISA signal OD450” value turned out to be 1.6 OD450.
In the case of B8, the “F_competitive (signal with 40 nM free 5-Helix / signal without)” value is 0.2 fraction and the “phage ELISA signal OD450” value was 1.8 OD450.
As to B9, the “F_competitive (signal with 40 nM free 5-Helix / signal without)” value was 0.1 fraction and the “phage ELISA signal OD450” value came to 2.1 OD450.
For B10 the same measures were 0.1 fraction and 2.3 OD450.

The target of another test is T2, 5-Helix. In words: ELISA; competitive phage ELISA, on-phage bivalent scFv: binding to immobilised 5-Helix inhibited by free 5-Helix or free 6-Helix-Fd (concentrations for the trimer); apparent. Particulars: one partner purified. (In general: ELISA stands for enzyme-linked immunosorbent assay.)
B1: the IC50 amounted to 1.8 nM.
Regarding B2, the IC50 was found to be 5.8 nM.
B3: the IC50 worked out at 0.5 nM.
For the molecule B4, the IC50 turned out to be 100 nM.
Turning to B5, the IC50 was found to be 1.6 nM.
Consider B6, for which the IC50 was 1.7 nM.
Regarding B7, the IC50 was determined as 17 nM.
Regarding B8, the IC50 is 32 nM.
On the same count and under the same terms, in the case of B9 it was 7.2 nM; in that of B10, 0.9 nM.

A further test deals with T1, 6-Helix-Fd. The test is described as above. The following applies: one partner purified.
With B1, the IC50 came out at 28 nM.
On the same count and under the same terms, with B2 the figure was approximately 3000 nM; with B3, approximately 80 nM; with B4, approximately 1000 nM.
The same measure, in the same setting: with B5 the figure was 260 nM; with B6, 230 nM.
On the same count and under the same terms, with B7 the figure was 170 nM.
For B8, the IC50 was approximately 1000 nM.
The same measure, in the same setting: with B9 the figure was 300 nM; with B10, 40 nM.

For orientation: IC50 means the midpoint of a concentration-inhibition curve.
